This is an account of results in US20200101171A1.

This assay addresses IGF-1 receptor (UniProt P08069). Description: SPA competition by the method of Experimental Example 1; text: relative to human native IGF-1; curve did not reach saturation at the highest concentration.

A value given as a limit tells only on which side of the number the result lay.

Sequence of UniProt P08069 (P08069 31-1367 limits assumed): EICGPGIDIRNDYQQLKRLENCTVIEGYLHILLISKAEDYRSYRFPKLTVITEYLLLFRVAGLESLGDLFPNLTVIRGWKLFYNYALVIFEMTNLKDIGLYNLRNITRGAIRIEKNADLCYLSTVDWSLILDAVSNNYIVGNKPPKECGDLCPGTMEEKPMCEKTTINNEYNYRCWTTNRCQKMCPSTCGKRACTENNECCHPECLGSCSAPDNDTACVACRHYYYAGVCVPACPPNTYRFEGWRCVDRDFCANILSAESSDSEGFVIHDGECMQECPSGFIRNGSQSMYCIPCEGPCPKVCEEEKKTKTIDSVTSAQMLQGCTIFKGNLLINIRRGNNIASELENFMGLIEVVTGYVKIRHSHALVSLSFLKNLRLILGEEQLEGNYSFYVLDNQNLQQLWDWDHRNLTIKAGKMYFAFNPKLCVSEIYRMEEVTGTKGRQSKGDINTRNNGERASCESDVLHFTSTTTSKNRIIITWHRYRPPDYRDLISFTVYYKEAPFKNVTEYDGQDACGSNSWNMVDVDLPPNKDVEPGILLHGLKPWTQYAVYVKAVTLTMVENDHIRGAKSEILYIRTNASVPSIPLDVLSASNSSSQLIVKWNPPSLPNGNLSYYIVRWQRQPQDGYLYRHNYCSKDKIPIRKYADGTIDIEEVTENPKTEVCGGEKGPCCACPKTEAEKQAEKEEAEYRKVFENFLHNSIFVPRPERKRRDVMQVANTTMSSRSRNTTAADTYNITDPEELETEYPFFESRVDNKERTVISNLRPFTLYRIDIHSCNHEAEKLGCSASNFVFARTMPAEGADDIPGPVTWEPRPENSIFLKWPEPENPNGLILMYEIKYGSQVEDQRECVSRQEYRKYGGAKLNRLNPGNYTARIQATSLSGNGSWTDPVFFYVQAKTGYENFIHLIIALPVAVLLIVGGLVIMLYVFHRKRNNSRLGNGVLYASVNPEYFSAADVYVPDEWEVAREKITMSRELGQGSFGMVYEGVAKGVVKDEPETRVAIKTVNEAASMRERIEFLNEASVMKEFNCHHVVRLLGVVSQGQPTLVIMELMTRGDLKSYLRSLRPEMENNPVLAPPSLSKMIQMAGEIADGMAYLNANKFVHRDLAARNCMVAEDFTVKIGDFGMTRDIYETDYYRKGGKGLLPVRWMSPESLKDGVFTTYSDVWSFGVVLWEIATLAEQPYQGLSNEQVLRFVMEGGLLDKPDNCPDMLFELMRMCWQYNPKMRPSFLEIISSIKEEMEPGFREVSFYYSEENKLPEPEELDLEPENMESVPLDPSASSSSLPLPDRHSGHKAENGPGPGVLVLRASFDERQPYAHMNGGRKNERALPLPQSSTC
Sequence of native insulin-3.4K PEG-immunoglobulin Fc conjugate (chain): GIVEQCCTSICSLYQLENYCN
Sequence of native insulin-3.4K PEG-immunoglobulin Fc conjugate (chain): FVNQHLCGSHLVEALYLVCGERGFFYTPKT

“native insulin-3.4K PEG-immunoglobulin Fc conjugate” displayed a Receptor binding affinity (%, SPA method), IGF-1R below 1%.
